Data: patent US8822187B1, “Polypeptides, nucleic acid molecules, and methods for synthesis of triterpenes” (University of Kentucky Research Foundation, priority 2011, dated 2014)
“Also recorded” adds a separate entry of the source.

Key:
[1] = Purified bacterial-expressed enzymes incubated with FPP, products by GC-MS or TLC/scintillation counting; format: biochemical; details: for squalene or botryococcene biosynthesis by purified enzyme in vitro: FPP as substrate, enzyme assayed alone
Text: (§1) FIG. 6 depicts the functional characterization of the squalene synthase-like genes of Botryococcus braunii race B. The squalene synthase-like genes, SSL-1, SSL-2 and SSL-3, were expressed in yeast separately (SSL-1 (B), SSL-2(C) or SSL-3(D)) or in combinations (SSL-1+SSL-2(E), SSL-1+SSL-3(F)) and the hexane extractable metabolites profiled by GC-MS. The chemical profile of yeast not engineered with any gene constructs serves as the background control (A). […] Data (J) represents mean±S.E.M. obtained from three independent experiments (n=3). The chromatograms (A-I) are also annotated for the elution behavior of botryococcene (1), squalene (2), presqualene alcohol (3) and bisfarnesyl ether (4).
The recombinant vectors were transformed into E. coli strain BL21(DE3) according to the manufacturer's recommendations (Novagen). The selected lines were grown with kanamycin selection at 37° C. with vigorous shaking until the cultures reached an optical density of ˜0.8 (OD600 nm), then expression of the corresponding SSL gene induced by addition of 0.5 mM isopropylthio-β-D-galactoside (IPTG) and the cultures incubate for an additional 3 to 20 h with shaking at room temperature. One hundred ml of the culture was subject to centrifugation at 4,000 g for 10 min, the pelleted cells resuspended in 10 ml of lysis buffer containing 50 mM NaH2PO4, pH 7.8, 300 mM NaCl, 10 mM imidazole, 1 mM MgCl2, 1 mM PMSF, 1% glycerol (v/v), then sonicated 4× for 10 sec with a microprobe sonicator at 60% maximum power. The samples were cooled on ice for 2 min between sonication treatments. The sonicate was centrifuged at 16,000 g for 10 min at 4° C. and the supernatant used for purification of the hexa-histidine tagged enzymes.
Purification of the bacterial expressed enzymes was afforded by the amino-terminal hexa-histidine tag using His-Select Cobalt affinity gel (Sigma) columns according the manufacturer's recommendations. Recovery of proteins with the expected molecular sizes was determined by SDS-PAGE. The purified protein fractions were concentrated using Amicon Ultra (0.5 ml, 10K) centrifugation filter units and stored in 300 mM NaCl, 20 mM Tris-HCl pH 7.5, 5 mM dithiothreitol, 2 mM MgCL2, 50% glycerol (v/v) at −20° C. for 2-3 weeks without noticeable loss of activity.
Typical enzyme assays were initiated by mixing aliquots of purified enzyme with 50 mM Mops, pH 7.3, 20 mM MgCl2, 2.5 mM 2-mercaptoethanol, 10 μM [1-^3H]-FPP (˜2×10^5 dpm total), and 2 mM NADPH in total reaction volume of 50 μl. Reactions were incubated at 37° C. for 1 h and then extracted with 100 μl n-hexane or 100 ul MTBE. Forty μl of the n-hexane or MTBE extract was then spotted onto silica TLC plates with authentic standards of botryococcene and squalene and developed with n-hexane, or standards of bisfarnesyl ether and developed with n-hexane:MTBE, 25:1. The standards were visualized with iodine vapors and TLC zones corresponding to the standards were scrapped and analyzed by scintillation spectrometry. If Botryococcus lysate was added to enzyme assays, typically 5 μl of lysate (corresponding to 10 μg total protein) prepared from B. braunii cells according to Okada et al. (1) was added. […] Extracts were resuspended in 50 μl hexane and an aliquot analyzed by GC-MS with a Varian CP-3800 GC coupled to a Varian Saturn 2200 MS/MS (Varian Medical Systems) using a Supelco SLB-5 ms fused silica capillary column (30 m×0.25 mm×0.25 μM film thickness, Supelco). […]

[2] = system: TN7 yeast line; assay: Expression of SSL genes in TN7 yeast line, hexane extractable metabolites by GC-MS; format: cell-based
Text: as §1
FIG. 10 includes a comparison of botryococcene production in yeast engineered with different configurations of SSL-1 and SSL-3. Yeast line TN7 was engineered with the SSL-1 and SSL-3 genes on separate plasmids (squares), with gene fusions (SSL-1 fused to SSL-3 via a triplet repeat of GGSG (triangles), or vice versa (diamonds)), or with 63 or 71 amino acids of the carboxy terminus of the Botryococcus squalene synthase, sequences containing a membrane spanning domain, appended to the carboxy termini of the SSL-1 and SSL-3 enzymes, respectively (circles). The data represents mean±S.E.M.
The various recombinant yeast expression vectors were introduced into the TN7 yeast line via lithium acetate transformation, followed by selection for uracil and leucine auoxtrophic growth (Takahashi, et al. (2007)). […] Individual colonies of TN7 and the various TN7-transformants were subsequently grown in 25 ml of YPDE (nutrient rich) or Yeast Synthetic Drop-out medium (selection) for the indicated time at 25° C. before analyzing the cultures for production of novel triterpene components. In brief, 1 ml aliquots of the culture were combined with 1 ml of acetone, vigorously mixed, and incubated at room temperature for 10 min. One ml of hexane was added and mixed vigorously for 60 sec. […] The dried extract was resuspended in 50-500 μl of n-hexane and a 1 μl aliquot analyzed by GC-MS as described above. […]

[3] = SSL-2 incubated by itself, NADPH-dependent

Molecule | squalene or botryococcene biosynthesis by purified enzyme in vitro [1] | products accumulating in yeast ([2]; gene expressed separately in yeast) | bisfarnesyl ether share of products [1, 3] | squalene share of products [1, 3] | squalene accumulating, share of the total ([2]; expressed in yeast)
Botryococcus braunii race B squalene synthase-like 1 (SSL-1), wild type, hexa-histidine tagged, SEQ ID NO: 2 (Botryococcus braunii) (protein) MTMHQDHGVMKDLVKHPNEFPYLLQLAATTYGSPAAPIPKEPDRAFCYNTLHTVSKGFPRFVMRLPQELQDPICIFYLLLRALDTVEDDMNLKSETKISLLRVFHEHCSDRNWSMKSDYGIYADLMERFPLVVSVLEKLPPATQQTFRENVKYMGNGMADFIDKQILTVDEYDLYCHYVAGSCGIAVTKVIVQFNLATPEADSYDFSNSLGLLLQKANIITDYNEDINEEPRPRMFWPQEIWGKYAEKLADFNEPENIDTAVKCLNHMVTDAMRHIEPSLKGMVYFTDKTVFRALALLLVTAFGHLSTLYNNPNVFKEKVRQRKGRIARLVMSSRNVPGLFRTCLKLANNFESRCKQETANDPTVAMTIKRLQSIQATCRDGLAKYDTPSGLKSFCAAPTPTK | did not exhibit either squalene nor botryococcene biosynthesis | accumulated to significant levels |  |  | 
SSL-2: Botryococcus braunii race B squalene synthase-like 2 enzyme; bacterial form is truncated SSL-2-tr2 (protein) MVKLVEVLQHPDEIVPILQMLHKTYRAKRSYKDPGLAFCYGMLQRVSRSFSVVIQQLPDELRHPICVFYLILRALDTVEDDMNLPNEVKIPLLRTFHEHLFDRSWKLKCGYGPYVDLMENYPLVTDVFLTLSPGAQEVIRDSTRRMGNGMADFIGKDEVHSVAEYDLYCHYVAGLVGSAVAKIFVDSGLEKENLVAEVDLANNMGQFLQKTNVIRDYLEDINEEPAPRMFWPREIWGKYAQELADFKDPANEKAAVQCLNHMVTDALRHCEIGLNVIPLLQNIGILRSCLIPEVMGLRTLTLCYNNPQVFRGVVKMRRGETAKLFMSIYDKRSFYQTYLRLANELEAKCKGEASGDPMVATTLKHVHGIQKSCKAALSSKELLAKSGSALTDDPAIRLLLLVGVVAYFAYAFNLGDVRGEHGVRALGSILDLSQKGLAVASVALLLLVLLARSRLPLLTSASSKQ | neither bacterial-expressed, purified enzymes exhibited any botryococcene biosynthesis; also recorded: low capacity for squalene biosynthesis |  | ~90% | ~10% | ~10 % of the total
